Reference: article doi:10.1101/2020.08.05.237438 (bioRxiv, 2020)
Positions count from the first letter of the chain named. Names may count otherwise.

B1: recombinant ClpP2 S97A active-site mutant of Leptospira interrogans (enzyme, L. interrogans serovar Copenhageni, UniProt Q72R01 1-197, looked up)
chain: MPETEKIAEVFEELTGSKISKNFLDHRKIFLWGPVTDESSKDLVGKLLYLEMKDPGKKITFYINSPGGVVTSGMTVFDTIKMISSPVHTVCMGMAAAMGSVLLAAGTKGERSIWPNGKVMIHQPSIGGQIVAPATDLKIHAEEILKTKTKLNQILADACGHPISKLEEDTDRDYYMDAEEAIKYGIVDKLATKIDFN
B2: recombinant caseinolytic protease ClpP2 of Leptospira interrogans (enzyme, L. interrogans serovar Copenhageni, UniProt Q72R01 1-197, looked up)
chain: B1 chain with A97S

Columns and labels:
[1] = target: recombinant caseinolytic protease ClpP1 of Leptospira interrogans (L. interrogans serovar Copenhageni, UniProt Q72SG6 1-198); test: dynamic light scattering
[2] = target: recombinant ClpP1 S98A active-site mutant of Leptospira interrogans (L. interrogans serovar Copenhageni, UniProt Q72SG6 1-198, S98A); test: dynamic light scattering

Binder | binding result [1] | binding result [2]
B1 | binds | 
B2 | binds | binds
